Test results reported in FireProtDB (doi:10.1021/bi9929958).

B1: Superoxide dismutase [Mn], mitochondrial, P04179 (parent)
chain: MLSRAVCGTSRQLAPVLGYLGSRQKHSLPDLPYDYGALEPHINAQIMQLHHSKHHAAYVNNLNVTEEKYQEALAKGDVTAQIALQPALKFNGGGHINHSIFWTNLSPNGGGEPKGELLEAIKRDFGSFDKFKEKLTAASVGVQGSGWGWLGFNKERGHLQIAACPNQDPLQGTTGLIPLLGIDVWEHAYYLQYKNVRPDYLKAIWNVINWENVTERYMACKK

Variants of: B1
Conditions: Homo sapiens; pH 7.8; Thermal; DSC; Potassium phosphate 20 mM; reversible: yes; structure 1N0J; whole UniProt chain shown

## Q167A
  Tm: 79.8 °C
  change of melting temperature, mutant - wild type (higher = more stable): -9.1 °C

## Q167E
  Tm: 103 °C
  change of melting temperature, mutant - wild type (higher = more stable): 14.1 °C

## Q167H
  Tm: 88.9 °C
  change of melting temperature, mutant - wild type (higher = more stable): 0 °C

## Q167S
  Tm: 94.9 °C
  change of melting temperature, mutant - wild type (higher = more stable): 6 °C

## Q167V
  Tm: 68.2 °C
  change of melting temperature, mutant - wild type (higher = more stable): -20.7 °C
